From US12285502B2, “HER3 peptides for imaging and radiotherapy” (The General Hospital Corporation, priority 2016, dated 2025)
Where two headings read alike, the source gives them in different places.

Legend:
TNBC cell lines [1] = settings: criterion for cell lines considered sensitive (CAL-148, HCC-70, CAL-51, HCC-1395, HS-578T); cited from earlier work
TNBC cell lines [2] = settings: criterion for cell lines considered sensitive (HDQ-P1, CAL-51, HCC-70, CAL-148, HCC-1395, HS-578T); cited from earlier work
[3] = tested on: 22RV1 (high HER3 expressing prostate cancer) tumors; parameters: species or system Nu/nu mice; settings: mouse, in vivo
Method: (§1) The peptide was radio labeled with the radiometal ^68Ga eluted from a ^68Ge/^68Ga generator (iThemba, South Africa) in 0.05M HCl. The pH of the elution was adjusted to approximately 4 by 2M=2-[4-(2-hydroxyethyl) piperazin-1-yl]ethanesulfonic acid and 100 ng of peptide reacted with the elution for 10 min at room temperature. Peptide was purified from free ^68Ga by reverse phase C18 cartridge (Waters, Milford, MA) and purity determined by ITLC. The peptide was then prepared in normal saline to a specific activity of approximately 300 MBq/mg for injection into mice. Nu/nu mice bearing either 22RV1 (high HER3 expressing prostate cancer) or HCC-1954 (low HER3 expressing breast cancer) tumors were implanted in the right upper flank of mice and grown to approximately 5-7 mm. Radiolabeled HER3 peptide was injected intravenously and allowed to circulate for 1 h prior to PET imaging. PET images were acquired on an Inveon micro PET/CT (Siemens, Knoxville, TN) for 15 minutes in list mode, followed by CT acquisition. Images were constructed using 3D-MLEM (20 subsets) and corrected for scatter and randoms. The tumor and blood uptake was calculated in a 3D region of interest drawn around the tumor and heart, respectively, using CT guidance. Images were post-processed using VivoQuant (InviCRO, Boston, MA).

[4] = tested on: HCC-1954 (low HER3 expressing breast cancer) tumors; parameters: species or system Nu/nu mice; settings: mouse, in vivo
Method: as §1

EGFR = EGFR (Homo sapiens, UniProt P00533); settings: 250 nM peptide, 405 nm
Method: (§2) The purity and molecular weight were determined by high performance liquid chromatography and mass spectrometry. […] Following blocking with 1% non-fat dry milk, increasing concentrations of peptide were incubated with target protein for 1 h at 37° C. Wells were washed with 0.1% TBST, and bound peptide detected by addition of HRP-conjugated streptavidin (Abeam, Cambridge, UK), washing and ABTS substrate incubation for 10 minutes. Absorbance at 405 nm was read by spectrophotometer. […] Plates were washed and bound peptide once again detected by addition of streptavidin-HRP and ABTS and absorbance read at 405 nm.

HER3 ECD = HER3 ECD (Homo sapiens, UniProt P21860); settings: peptide ELISA absorbance
HER3 ECD, sequence (P21860 20-643 limits assumed): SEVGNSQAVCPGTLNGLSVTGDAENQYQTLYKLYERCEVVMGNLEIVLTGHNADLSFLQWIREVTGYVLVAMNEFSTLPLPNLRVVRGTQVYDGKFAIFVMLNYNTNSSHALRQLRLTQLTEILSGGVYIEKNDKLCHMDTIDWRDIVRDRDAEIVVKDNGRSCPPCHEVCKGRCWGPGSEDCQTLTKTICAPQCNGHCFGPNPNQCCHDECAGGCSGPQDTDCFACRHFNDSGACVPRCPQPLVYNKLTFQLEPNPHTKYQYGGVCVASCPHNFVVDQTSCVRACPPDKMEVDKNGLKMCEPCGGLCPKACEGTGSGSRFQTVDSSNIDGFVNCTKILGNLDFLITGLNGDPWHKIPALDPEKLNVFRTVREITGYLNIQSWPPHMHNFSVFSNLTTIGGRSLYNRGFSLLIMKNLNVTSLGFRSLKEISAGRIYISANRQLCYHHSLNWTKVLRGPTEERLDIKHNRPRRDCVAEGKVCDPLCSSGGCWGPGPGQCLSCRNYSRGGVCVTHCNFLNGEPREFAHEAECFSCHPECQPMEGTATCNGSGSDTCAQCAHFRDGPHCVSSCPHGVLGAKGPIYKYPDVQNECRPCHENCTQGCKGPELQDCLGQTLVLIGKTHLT
Method: as §2

[5] = tested on: MDA-MB-453 breast cancer cells (moderate HER3); test: HER3 peptide cellular binding (streptavidin-HRP absorbance, fluorescent microscopy), MDA-MB-453; type: cell-based
Method: (§3) Two cell lines, MDA-MB-453 breast cancer cells which express moderate levels of HER3 and HCC-1954 cells which express low levels of HER3, were chosen to assess the ability of the peptide to discriminate between relatively close expression levels in vitro. Cells were seeded at a density of 1×10^5 cells/well in 96 well plates (Fisher) and grown overnight for 24 h in fetal bovine serum supplemented medium. HER3 peptide or a control peptide were added at 250 nM in media and incubated for 1 h at 37° C. Cells were washed 3× with PBS and bound peptide detected by addition of streptavidin-HRP. Cells were once again washed and bound peptide detected by addition of ABTS and absorbance read at 405 nm. Visual confirmation of peptide binding was confirmed by fluorescent microscopy. MDA-MB-453 and HCC-1954 cells were fixed in 10% formalin and dried onto microscope slides overnight. Following rehydration with TBS, slides were blocked with 2% BSA in TBS for 1 h prior to addition of peptide at a concentration of 250 nM in 0.1% TBST and incubation at room temperature for 1 h. Cells were washed 3× with 0.1% TBST and neutravidin-Alexafluor488 was added to cells and incubated at room temperature for 1 h. Cells were washed, mounted with Vectorshield mounting media with DAPI (Vector Labs, Burlingame, CA) and visualized by inverted microscope (Olympus, Tokyo, Japan).

[6] = tested on: HCC-1954 cells (low HER3); test: HER3 peptide cellular binding (streptavidin-HRP absorbance, fluorescent microscopy), HCC-1954; type: cell-based; settings: fixed HCC-1954 cells, 250 nM peptide
Method: as §3

human MDA-MB-453 tumors = tested on: human MDA-MB-453 tumors; parameters: species or system mice; settings: mouse, in vivo
Method: Following imaging, mice were treated with 100 mg/kg of lapatinib every 12 hours for 48 hours following PET imaging. At the end of 48 hours, mice were imaged in the exact same manner as before treatment.

[7] = mouse, in vivo, iv
Text: Following PET acquisition, tumors and relevant organs were removed from mice, weighed, and total activity for each was quantified by a Wallac gamma counter (Perkin Elmer, Waltham, MA). […] The specific activity of the labeled peptide was 296±25.9 MBq/mg.

CC(C)NC[C@@H](C(=O)N1CCN(c2ncnc3c2[C@H](C)C[C@H]3O)CC1)c1ccc(Cl)cc1 [GDC-0068]
IC50 (TNBC cell lines [1]): < 1000 nM

CS(=O)(=O)N1CCN(Cc2cc3nc(-c4cccc5[nH]ncc45)nc(N4CCOCC4)c3s2)CC1 [GDC-0941]
IC50 (TNBC cell lines [2]): < 1000 nM

CC(C)C[C@@H]1NC(=O)[C@@H](NC(=O)CNC(=O)CNC(=O)CNC(=O)CCNC(=S)Nc2ccc(CC3CN(CC(=O)O)CCN(CC(=O)O)CCN3CC(=O)O)cc2)CSSC[C@@H](C(=O)O)NC(=O)[C@H](CO)NC(=O)[C@H](CCCNC(=N)N)NC(=O)[C@H](Cc2ccccc2)NC(=O)[C@H](CCCCN)NC(=O)[C@H]([C@@H](C)O)NC(=O)[C@@H]2CCCN2C1=O (stereo partly drawn) [^68Ga-(NOTA-NCS)-HER3P1, ^68Ga-(NOTA-NCS)-beta A-G-G-G-C-L-P-T-K-F-R-S-C, metal not drawn]
off-target peptide accumulation [3]: minimal | tumor uptake by PET imaging [3]: high | standardized tumor to blood ratios (TBR) ([3]; iv): 1.60-3.32 | tumor uptake by PET imaging [4]: much lower levels | standardized tumor to blood ratios (TBR) ([4]; iv): 0.69-0.94

C-L-P-T-K-F-R-S-C [HER3P1]
absorbance of binding to EGFR (EGFR): 0.21±0.09 | selectivity/specificity for HER3 over other proteins (EGFR, HER2, BSA) (HER3 ECD): approximately 4 fold | selectivity/specificity for HER3 over other proteins (EGFR, HER2, BSA) (HER3 ECD; listed as displayed peptide conjugated to biotin): greater than 4 fold | cell binding absorbance ([5]; MDA-MB-453, 250 nM peptide, 1 h 37° C., 405 nm): 0.29±0.06 | binding by fluorescent microscopy ([5]; fixed MDA-MB-453 cells, 250 nM peptide): high binding | binding by fluorescent microscopy [6]: almost no visualization | SUVmean (human MDA-MB-453 tumors): 0.42±0.04 | biodistribution, HER3+ tumors [7]: 0.50±0.18 % ID/g | biodistribution, intestines [7]: 0.48±0.15 % ID/g | biodistribution, kidneys [7]: 10.1±1.67 % ID/g | biodistribution, lungs [7]: 0.70±0.14 % ID/g | biodistribution, stomach [7]: 0.30±0.07 % ID/g
